How the values were obtained:
RSV-F.mmh = molecular target: T1, RSV-F.mmh (Respiratory Syncytial Virus); assay: SPR (Biacore), mAb captured via Fc, soluble RSV-F.mmh injected, 25 C
T1 construct: also called recombinant RSV-F; soluble monomeric RSV-F

[1] = molecular target: T2, RSV-F of RSV subtype A strain A2 (1540) (respiratory syncytial virus subtype A, …, UniProt P03420 26-574); assay: cell-based or functional assay
[2] = molecular target: T3, RSV-F of RSV subtype B strain 9320 (respiratory syncytial virus subtype B, …); assay: cell-based or functional assay
[3] = molecular target: T4, RSV-F of RSV subtype B strain 1580 (respiratory syncytial virus subtype B, …); assay: cell-based or functional assay
[4] = molecular target: T2, RSV-F of RSV subtype A strain A2 (1540); assay: cell-based or functional assay; remark: listed apart in the source
[5] = molecular target: T5, RSV-F of RSV subtype A strain Long (respiratory syncytial virus subtype A, …, UniProt P12568 26-574); assay: cell-based or functional assay
[6] = molecular target: RSV-F S173T of escape mutant RSV/B S173T (respiratory syncytial virus subtype B, …); assay: cell-based or functional assay
[7] = molecular target: T2, RSV-F of RSV subtype A strain A2 (1540); assay: cell-based or functional assay; remark: listed apart in the source
[8] = molecular target: RSV-F T174K of escape mutant RSV/B T174K (respiratory syncytial virus subtype B, …); assay: cell-based or functional assay
[9] = molecular target: RSV-F S173T/T174K of escape mutant RSV/B S173T/T174K (respiratory syncytial virus subtype B, …); assay: cell-based or functional assay
[10] = molecular target: RSV-F S173Y of escape mutant RSV/A S173Y (respiratory syncytial virus subtype A, …, UniProt P03420 26-574); assay: cell-based or functional assay
[11] = molecular target: T4, RSV-F of RSV subtype B strain 1580; assay: cell-based or functional assay; remark: listed apart in the source
[12] = molecular target: RSV-F of RSV subtype A clinical isolate A1998/12-21 (respiratory syncytial virus subtype A, …); assay: cell-based or functional assay
[13] = molecular target: RSV-F of RSV subtype A clinical isolate A1997/12-35 (respiratory syncytial virus subtype A, …); assay: cell-based or functional assay
[14] = molecular target: RSV-F of RSV subtype A clinical isolate A2001/2-20 (respiratory syncytial virus subtype A, …); assay: cell-based or functional assay
[15] = molecular target: RSV-F of RSV subtype A clinical isolate A2000/3-4 (respiratory syncytial virus subtype A, …); assay: cell-based or functional assay
[16] = molecular target: RSV-F of RSV subtype A clinical isolate A2001/3-12 (respiratory syncytial virus subtype A, …); assay: cell-based or functional assay
[17] = molecular target: RSV-F of RSV subtype A clinical isolate A1998/3-2 (respiratory syncytial virus subtype A, …); assay: cell-based or functional assay
[18] = molecular target: T3, RSV-F of RSV subtype B strain 9320; assay: cell-based or functional assay; remark: listed apart in the source
[19] = molecular target: T2, RSV-F of RSV subtype A strain A2 (1540); assay: cell-based or functional assay; remark: listed apart in the source
[20] = molecular target: RSV-F of RSV subtype B strain 1400 (respiratory syncytial virus subtype B, …); assay: cell-based or functional assay
[21] = molecular target: T5, RSV-F of RSV subtype A strain Long; assay: cell-based or functional assay; remark: listed apart in the source
[22] = molecular target: RSV-F of RSV subtype B strain 1A2 (respiratory syncytial virus subtype B, …); assay: cell-based or functional assay
[23] = molecular target: RSV-F of RSV subtype B strain 18537 (respiratory syncytial virus subtype B, …, UniProt P13843 26-574); assay: cell-based or functional assay
[24] = molecular target: T2, RSV-F of RSV subtype A strain A2 (1540); assay: cell-based or functional assay; remark: listed apart in the source

| Binder | Kd (RSV-F.mmh) | koff (RSV-F.mmh) | kon (RSV-F.mmh) | t½ (RSV-F.mmh) | IC50 [pM] for RSV A2 Neutralization, Trial 7 [1] | RSV-9320 Neutral. IC50 [pM] [2] | RSV-9320 neutralization, Fold Improvement Relative to Control 1 [2] | RSV - 1580 Neutral. IC50 [pM] [3] | RSV - 1580 neutralization, Fold Improvement Relative to Control 1 [3] | RSV-A2 (1540) Neutral. IC50 [pM] [4] | RSV-A2 (1540) neutralization, Fold Improvement Relative to Control 1 [4] | RSV-Long Neutral. IC50 [pM] [5] | RSV-Long neutralization, Fold Improvement Relative to Control 1 [5] | Neutralization IC50, pM (microneutralization, wt subtype A) [7] | Neutralization IC50, pM (microneutralization, wt subtype B) [11] | IC50 (pM), RSV micro-neutralization, clinical isolate [12] | IC50 (pM), RSV micro-neutralization, clinical isolate [13] | IC50 (pM), RSV micro-neutralization, clinical isolate [14] | IC50 (pM), RSV micro-neutralization, clinical isolate [15] | IC50 (pM), RSV micro-neutralization, clinical isolate [16] | also measured |
| --- | --- | --- | --- | --- | --- | --- | --- | --- | --- | --- | --- | --- | --- | --- | --- | --- | --- | --- | --- | --- | --- |
| H1H3627N (antibody, V domains shown) VH: EVQLVESGGGLVQPGGSLRLSCAASGFTISNYEMNWVRQAPGKGLEWVSYISTSGITIYYADSVQGRFTISRDNAKNSLYLQLNSLRAEDTAVYYCARGYCTNGVCYPHYYYSDMDVWGQGTTVTVSS VL: DIQMTQSPSSLSASVGDRLTITCRASQTISTYLNWFQQKVGNAPKLLIYSTSSLQSGVPARFSGSGSGTDFTLTISSLQPEDFATYYCQQSYSSPPTFGQGTKVEIK | 0.581 nM | 0.000149 s⁻¹ | 256000 M⁻¹ s⁻¹ | 78 min | 3 pM | 11 pM | 42 fold | 6.7 pM | 55 fold | 2.6 pM | 138 fold | 7.3 pM | 73 fold | – | – | – | – | – | – | – | – |
| Control II (motavizumab sequence) (antibody, V domains shown) VH: QVTLRESGPALVKPTQTLTLTCTFSGFSLSTAGMSVGWIRQPPGKALEWLADIWWDDKKHYNPSLKDRLTISKDTSKNQVVLKVTNMDPADTATYYCARDMIFNFYFDVWGQGTTVTVSS VL: DIQMTQSPSTLSASVGDRVTITCSASSRVGYMHWYQQKPGKAPKLLIYDTSKLASGVPSRFSGSGSGTEFTLTISSLQPDDFATYYCFQGSGYPFTFGGGTKVEIKR | – | – | – | – | 12 pM | 56 pM | 8.2 fold | 43 pM | 8.7 fold | 14 pM | 25 fold | 65 pM | 8.2 fold | 108 pM | 260 pM | 68 pM | 41 pM | 74 pM | 88 pM | 129 pM | IC50 [pM] for RSV A2 Neutralization, Trial 1 [1]: 50 pM; IC50 [pM] for RSV A2 Neutralization, Trial 2 [1]: 30 pM; IC50 [pM] for RSV A2 Neutralization, Trial 3 [1]: 23 pM; IC50 [pM] for RSV A2 Neutralization, Trial 4 [1]: 20 pM; IC50 [pM] for RSV A2 Neutralization, Trial 5 [1]: 12 pM; IC50 [pM] for RSV A2 Neutralization, Trial 6 [1]: 12 pM; Neutralization IC50, pM (microneutralization, escape mutant) [6]: 177 pM; Neutralization IC50, pM (microneutralization, escape mutant) [8]: 108 pM; Neutralization IC50, pM (microneutralization, escape mutant) [9]: 218 pM; Neutralization IC50, pM (microneutralization, escape mutant) [10]: 170 pM; IC50 (pM), RSV micro-neutralization, clinical isolate [17]: 36 pM; IC50 (pM), RSV micro-neutralization, B/9320 [18]: 76 pM; IC50 (pM), RSV micro-neutralization, A/A2 [19]: 202 pM; IC50 (pM), RSV micro-neutralization, B/1400 [20]: 38 pM; IC50 (pM), RSV micro-neutralization, A/Long [21]: 83 pM; IC50 (pM), RSV micro-neutralization, B/1A2 [22]: 40 pM; IC50 (pM), RSV micro-neutralization, B/18537 [23]: 187 pM |
| H1H3592P3 (antibody, V domains shown) VH: EVQLVESGGDLVQPGRSLRLSCVASGFTFDDYAMHWVRQAPGKGLEWVSGVSWSGSTVGYADSVKGRFTVSRDNAQKSLYLQMNSLRAEDTALYYCVKDAYKFNYYYYGLDVWGQGTTVTVSS VL: EIVMTQSPATLSVSPGERATLSCRASQTILSNLAWYLQKPGQAPRLLIYGASTRATGLPARFSGSGSGTEFTLTISSLQSEDFAVYYCQQYNNWPLTFGGGTKVEIK | 8.43 nM | 0.000747 s⁻¹ | 88600 M⁻¹ s⁻¹ | 15 min | 10 pM | 100 pM | 4.6 fold | 31 pM | 12 fold | 10 pM | 36 fold | 15 pM | 35 fold | 177 pM | 290 pM | 34 pM | 40 pM | 43 pM | 50 pM | 66 pM | IC50 of blocking viral fusion (antibody added after viral attachment at 4 C, infection read by ELISA) [24]: 0.23 nM; IC50 (pM), RSV micro-neutralization, clinical isolate [17]: 35 pM; IC50 (pM), RSV micro-neutralization, B/9320 [18]: 151 pM; IC50 (pM), RSV micro-neutralization, A/A2 [19]: 140 pM; IC50 (pM), RSV micro-neutralization, B/1400 [20]: 33 pM; IC50 (pM), RSV micro-neutralization, A/Long [21]: 44 pM; IC50 (pM), RSV micro-neutralization, B/1A2 [22]: 48 pM; IC50 (pM), RSV micro-neutralization, B/18537 [23]: 230 pM |
